The results in this text go back to the supplement of paper PMC10126150.

± gives the standard deviation of the averaged measurements.
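Note: ATP exposure 15 min at 22 °C before imaging.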

This data set relates to ATP. The data set is described as follows: switch fluorescence ratio, 500 uM ATP over buffer (Cy3 cluster intensity, sum of 5 cycles each) (fold (ratio)); higher = stronger signal-on switching upon ATP binding; sequences stand for … in TCGTCGGCAGCGTCAGATGTGTATAAGAGACAGTTTTTTTTTTTTTTTTTTTTTTTTT…TC. Particulars: aptamer strand: ATP DNA aptamer (quencher-CACCTGGGGGAGTATTGCGGAGGAAGG + anchor), 100 nM annealed; ATP concentration: 500 uM. In short, it runs like this: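 Five buffer/ATP imaging cycles were run on Cy3-labelled switching-strand clusters on a modified Illumina MiSeq flow-cell, with NaOH stripping and re-annealing between cycles. In each cycle, clusters annealed to 100 nM quencher-labelled ATP aptamer were imaged in selection buffer, then after 15 min with 500 uM ATP at 22 °C. Per cluster, the fluorescence ratio is summed target-cycle over summed buffer-cycle Cy3 intensity, averaged per switch-domain sequence. Only clusters within 100-1000 RFU were kept.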
As to TTCGGTTTTG, the switch fluorescence ratio worked out at 0.993 ± 0.031. On to AGCGCTGGGA, for which the switch fluorescence ratio is 1 ± 0.05.

As to GGGGGAATAA, the switch fluorescence ratio was 1.54 ± 0.73. The result for GCTGTTGGAA reads 0.985 ± 0.012; that for AAAAATTTTA, 0.993 ± 0.026; that for CGAAGAGGTC, 1.02 ± 0.032.

On to GGGTATAACG, for which the switch fluorescence ratio was 0.974 ± 0.035.

For CTTGTTAGGA, the switch fluorescence ratio turned out to be 1 ± 0.012. The result for GTTAGCTTGC reads 0.996 ± 0.029.

Turning to GGAAGGATTC, the switch fluorescence ratio worked out at 0.999 ± 0.013.

As to AATCGGGGGT, the switch fluorescence ratio is 1.002 ± 0.0097.

Consider CACCCCGCAC, for which the switch fluorescence ratio was determined as 3.46 ± 0.48.

On to TGGGGAGGAT, for which the switch fluorescence ratio turned out to be 0.974 ± 0.023. The figure for TTGGATTCGG is 0.972 ± 0.017.

As for AAGTGGGTAT, the switch fluorescence ratio was 1.16 ± 0.23.

In the case of GGTGGTAGTT, the switch fluorescence ratio was 1.012 ± 0.003. The result for GGGACAGTGG reads 1 ± 0.015; that for TTTGTTCTGT, 1.01 ± 0.018; that for AGTTATATGT, 0.985 ± 0.037.

For AGTTCGTAGA, the switch fluorescence ratio is 0.966 ± 0.048. For the sequence GCTGGGAAGG, the switch fluorescence ratio turned out to be 0.978 ± 0.013. The figure for GTGGAAAAGG is 0.966 ± 0.046; for GGGCCAGGGA it is 1 ± 0.024. Regarding TTATGTTCAG, the switch fluorescence ratio is 1.04 ± 0.034. For the sequence GTTCCAAAGC, the switch fluorescence ratio was 1.23 ± 0.019.

ATACGATGTA: the switch fluorescence ratio worked out at 0.986 ± 0.014. The figure for AATAAGTATT is 1.024 ± 0.003.

With ATAAGTTAGT, the switch fluorescence ratio was 0.989 ± 0.016. The figure for TGACAAGTGG is 1.01 ± 0.015; for GAGATGAGGA it is 0.97 ± 0.024; for CGATGAAAGG it is 0.966 ± 0.023. The result for ATTGGTTTGG reads 1.032 ± 0.01; that for GCTCGATGTG, 1 ± 0.015.

With GGGACTGGGT, the switch fluorescence ratio came to 0.999 ± 0.012.

For CGGAGCAGGT, the switch fluorescence ratio is 2.09 ± 0.42. The figure for GGCTAATTGG is 0.99 ± 0.026; for TCTGTCCAGC it is 0.9775 ± 0.0046.

For AGGTATACCT, the switch fluorescence ratio amounted to 1.014 ± 0.0028. Take TATGGGTGGG: the switch fluorescence ratio was determined as 0.964 ± 0.018.

With GGGGTGATGC, the switch fluorescence ratio is 1.07 ± 0.061. The result for CAATATTCTT reads 1.02 ± 0.027; that for TGGTTTTAGA, 0.999 ± 0.016. The figure for TCAGTCTTTC is 1.017 ± 0.0009; for AGAGGGGTTT it is 0.98 ± 0.03. The result for TTTTGAGGT reads 1.02 ± 0.03. In the case of GAAAATTATA, the switch fluorescence ratio came out at 1.02 ± 0.035.

Consider ATAAAAGTCC, for which the switch fluorescence ratio worked out at 0.979 ± 0.017.

As to CTTTTATTTA, the switch fluorescence ratio came out at 0.99186 ± 0.00094. The result for AGTGTTAGTT reads 1 ± 0.024. The figure for CAATTCGATA is 1.02 ± 0.025; for CTGTTGACTG it is 0.983 ± 0.041. The figure for CCAGTAATTG is 1.04 ± 0.022. Regarding TGGGATTGGC, the switch fluorescence ratio is 1.01 ± 0.11. The result for ATTGAACAT reads 0.984 ± 0.015. The result for ACAGATGGGG reads 1.01 ± 0.015; that for TGAGAAGGGG, 0.991 ± 0.041.

For TACATAAAAC, the switch fluorescence ratio is 1.011 ± 0.0025. The figure for CCTGGATTTA is 1.01 ± 0.011. The figure for TGAATTTTTG is 0.989 ± 0.028; for TATTACAGGT it is 1.03 ± 0.0089. The figure for TTTATGAAGA is 0.985 ± 0.027; for TGTGACTCGG it is 0.978 ± 0.016; for AAGGGAGTCA it is 0.992 ± 0.031. For TGAGAGTTTA, the switch fluorescence ratio came to 1.024 ± 0.0062.

For the sequence GTGGTATTTT, the switch fluorescence ratio turned out to be 0.999 ± 0.035. Regarding CAAGTCTATG, the switch fluorescence ratio worked out at 0.973 ± 0.036. The result for GGGCCTCGGA reads 0.988 ± 0.042; that for TAGCTCGGGC, 1.03 ± 0.019; that for TTCAGGACTC, 0.973 ± 0.045. The result for GGTCGCAGTC reads 0.9649 ± 0.0016; that for ATCTTTGTTG, 0.987 ± 0.018; that for CGGGGAAAGA, 0.978 ± 0.03. As to CCTTAAGACA, the switch fluorescence ratio stood at 1.06 ± 0.015. For the sequence ACAGGAGGGG, the switch fluorescence ratio worked out at 1.04 ± 0.018. The result for AATAGGTTGG reads 0.994 ± 0.029; that for ATATGGTCGT, 0.998 ± 0.017. The figure for GCGATTGATG is 1.02 ± 0.026. The result for ATGGACAGGC reads 0.912 ± 0.014; that for TTTGTTAGTG, 0.972 ± 0.021; that for TAGTATTTAT, 1.02 ± 0.044. Regarding TCCGGTGACG, the switch fluorescence ratio is 0.968 ± 0.033. The result for CGTGTATTTG reads 0.989 ± 0.011; that for CGGATTTGAC, 1.015 ± 0.0028; that for GGGGTCAGCC, 1.06 ± 0.13.

For the sequence TTTTGAGAAT, the switch fluorescence ratio was 1.017 ± 0.0015. The result for GGCAGAGGCT reads 1.03 ± 0.031. The result for TTGCCAGATT reads 0.994 ± 0.037; that for ACAAGTGTGC, 1.04 ± 0.018.

For CCATTGTGAC, the switch fluorescence ratio was found to be 1.06 ± 0.018. Take ACGAAAACGC: the switch fluorescence ratio is 1.36 ± 0.23. The figure for TTGACAGGTT is 1.15 ± 0.19. The result for TTTACATTTT reads 0.998 ± 0.044; that for CGGGTTGTCT, 0.963 ± 0.1.

As for GCTTGTTTGA, the switch fluorescence ratio was determined as 1.01 ± 0.014.

With CGCCTCATGA, the switch fluorescence ratio was 1.04 ± 0.029. The figure for CCAAGGCGGG is 1.04 ± 0.017; for TAGACAAAAA it is 1.08 ± 0.12; for TATTTCTGTT it is 0.984 ± 0.025. The result for TCGGGGGAGC reads 0.984 ± 0.025; that for TTACTACGGC, 1.09 ± 0.021; that for TATCGTATTG, 0.979 ± 0.011. The result for TTATATGGGT reads 0.999 ± 0.013. Take TATTTCATTT: the switch fluorescence ratio was 1.06 ± 0.072.

As for CTCGGAGATT, the switch fluorescence ratio worked out at 1.01 ± 0.018.

As to CGACAAGCTT, the switch fluorescence ratio stood at 1.03 ± 0.016. The result for GGGGGGTTAA reads 1.02 ± 0.028; that for TAATGTGGGT, 0.967 ± 0.015. The result for CGCTGGGTTT reads 0.976 ± 0.035.

With TATCTCTGGG, the switch fluorescence ratio amounted to 1.02 ± 0.014. The result for GGGTTCATTT reads 1.019 ± 0.0015.

For the sequence TTTTGTGAAA, the switch fluorescence ratio amounted to 0.997 ± 0.036.

As for GGGGCGGCTA, the switch fluorescence ratio was determined as 0.984 ± 0.029. The figure for TAGAGGGGCA is 0.979 ± 0.011. Turning to ATATTTAGTT, the switch fluorescence ratio was found to be 1.01 ± 0.051. The figure for AGTGTGATCA is 0.9859 ± 0.008; for TTTTCCTATG it is 0.977 ± 0.019. The result for GGCCCTTCGG reads 0.9987 ± 0.0091; that for TTTACCCCGC, 1.63 ± 0.58. The figure for CCTAACTTAG is 1.021 ± 0.0029; for GCTTATCCTG it is 0.982 ± 0.041.
